Columns and labels:
[1] = tested on: T1, Fis (Pseudomonas putida (strain PaW85?)), ORF:eb421da7; test: EMSA; conditions: EMSA: 24 mM Tris/HCl pH 7.5, 50 mM KCl, 10 mM MgCl2, 1 mM CaCl2, 0.1 mM EDTA, 5% glycerol, 0.05 ug/ul BSA, 0.05 ug/ul salmon sperm DNA, 20 ul, 20 min room …
T1 sequence: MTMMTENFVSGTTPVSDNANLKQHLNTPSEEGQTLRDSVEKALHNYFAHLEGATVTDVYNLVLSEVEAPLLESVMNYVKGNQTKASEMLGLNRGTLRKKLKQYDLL

[2] = tested on: T1, Fis (Pseudomonas putida (strain PaW85?)), ORF:eb421da7; test: DNase I footprinting; conditions: EMSA: 24 mM Tris/HCl pH 7.5, 50 mM KCl, 10 mM MgCl2, 1 mM CaCl2, 0.1 mM EDTA, 5% glycerol, 0.05 ug/ul BSA, 0.05 ug/ul salmon sperm DNA, 20 ul, 20 min room …

For “CGTAACAGAGCCCTTTCAGGGGTCTTACGCACAGCCTCGACCAGGCAGTCGACAAACGGGTGGTTAGGGAGATATAGCAGCCGGTGGGGAAGCAACCAGATGGCTTTCTGGGTTAATCCTTTGGTAGAAAAGCCTCAGCGAAAGATCTA (double strand) [lapF promoter fragment with Fis-F2 (wild type)]”, which binding [1] is on record?
Its binding is “binds”.

And the binding [2]?
Its binding is “binds”.

From article PMC4278767
